B1: N-612-004 Fab (Fab, V domains shown)
VH: EVQLVESGGGLVQPGGSLRLSCAASGFTFSSYYMHWVRQAPGKGLEWVSAISGSGGYTYYADSVKGRFTISRDNSKNTLYLQMNSLRAEDTAVYYCARDRDHAYDWGFDVWGQGTLVTVSS
VL: DIQMTQSPSSLSASVGDRVTITCQASQDISNYLNWYQQKPGKAPKLLIYDASNLETGVPSRFSGSGSGTDFTFTISSLQPEDIATYYCQQWADWPLTFGQGTKVEIK
B2: N-612-004 (IgG1) (antibody, V domains shown)
VH: B1 VH
VL: B1 VL

Legend:
dissociated S1 protomer = dissociated S1 protomer (SARS-CoV-2, Wuhan-Hu-1, stabilised); experiment: cryo-EM structure
[1] = target: recombinant S1 domain containing B.1.1.7 mutations (SARS-CoV-2 B.1.1.7 (Alpha), strain); experiment: BLI

Binder	binding result (dissociated S1 protomer)	fold reduction of binding affinity against S1 [1] [fold]
B1	binds	
B2		~3

Source: PMC8769934 (Cell Reports, 2022)
